According to PMC6921968:

Target: SpyCatcher::HBsAg VLP (hepatitis B surface antigen genetically fused to SpyCatcher) (Streptococcus pyogenes | hepatitis B virus)
Test: covalent (isopeptide) coupling, SDS-PAGE with Coomassie staining and densitometry; SpyCatcher::HBsAg VLP incubated with Pfs25::SpyTag at molar ratio 1.5, 0.5 or 0.1, 3 h to overnight at room temperature, with 10x reaction buffer (40 mM Na2HPO4, 200 mM sodium citrate, pH 6.2); dialysed (100 kDa cut-off) against TBS; conjugation efficiency = % of total SpyCatcher::HBsAg coupled to Pfs25::SpyTag

## Pfs25::SpyTag (Pfs25-SpyTag-Ctag)
  conjugation efficiency (% of total SpyCatcher::HBsAg coupled to Pfs25::SpyTag) at molar ratio 0.1: 10%
  conjugation efficiency (% of total SpyCatcher::HBsAg coupled to Pfs25::SpyTag) at molar ratio 0.5: 50%
  conjugation efficiency (% of total SpyCatcher::HBsAg coupled to Pfs25::SpyTag) at molar ratio 1.5: > 90%
